Laboratory results published in patent publication US20240343810A1 (published 2024).

How the values were obtained:
[1] = biological target: T1, human ICOS-mFc (Chimerigen) (human, UniProt Q9Y6W8 21-140); assay: DELFIA ELISA on coated human ICOS-mFc, N=1
T1 construct: Bought; also called recombinant human ICOS protein; hICOS; not shown: mouse Fc of the bought fusion
T1 sequence: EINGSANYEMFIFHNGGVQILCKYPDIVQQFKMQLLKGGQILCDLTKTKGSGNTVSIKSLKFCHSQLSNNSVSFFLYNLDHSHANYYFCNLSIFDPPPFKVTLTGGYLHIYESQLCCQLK
Procedure: (§1) Recombinant ICOS proteins, human ICOS-mFc or mouse ICOS-mFc (Chimerigen) were diluted in 1×PBS and added to Black Hi-bind plates (Griener) at 1 μg/ml, 50 μl/well. Recombinant PD-L1 proteins, human PD-L1-Flag-His or mouse-His were diluted in 1×PBS and added to Black Hi-bind plates (Griener) at 4 μg/ml, 50 μl/well. The plates were left overnight at 4° C. The next day plates were washed 3× with 300 μl/well of 1×PBS+0.1% Tween and blocked with 200 ul/well of 1×PBS+1% BSA blocking buffer for 1 hr at RT on a plate shaker. Plates were washed 3× with 300 μl/well of 1×PBS+0.1% Tween.
(§2) However, human-PD-L1 mAb² antibodies were diluted in 1×PBS+0.1% BSA buffer and diluted 1 in 2 from a starting working concentration of 0.066 μM over an 11 point titration. Titrated antibodies were added to the plates, 50 μl/well and left to incubate for 1 hr at R.T on a plate shaker. Plates were washed 3× with 300 μl/well of 1×PBS+0.1% Tween.
(§3) DELFIA® Eu-labelled Anti-human IgG (Perkin-Elmer) was diluted 1:500 in DELFIA Assay buffer (Perkin-Elmer) and added to the assay plate (50 μl/well), left to incubate for 1 hr at RT on a plate shaker. […] After incubation, assay was read on Envision plate reader (Perkin Elmer), Time-resolved fluorescence (TRF) was measured at 615 nm.

[2] = biological target: T2, mouse ICOS-mFc (Chimerigen) (mouse, UniProt Q9WVS0 21-141, limits assumed); assay: HTRF, mouse ICOS-mFc, competitor mouse B7-H2-Alexa 647, n2
T2 construct: Bought; also called recombinant mouse ICOS protein; mICOS; not shown: mouse Fc of the bought fusion
T2 sequence: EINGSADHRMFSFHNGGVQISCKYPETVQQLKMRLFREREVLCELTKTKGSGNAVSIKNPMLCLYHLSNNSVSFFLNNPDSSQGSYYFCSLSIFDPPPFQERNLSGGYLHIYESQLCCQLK
Procedure: (§4) 5 μl of human ICOS-mFc (Chimerigen) at 20 nM (5 nM final) or 5 ul of mouse ICOS-mFc (Chimerigen) at 4 nM (1 nM final) were added to relevant assay wells. Plate was incubated for 1 hour (hr) at room temperature (RT).
(§5) After incubation, assay was read on Envision plate reader (Perkin Elmer) using a standard HTRF protocol. 620 nm and 665 nm channel values were exported to Microsoft Excel and % Delta-F and % Neutralisation calculations performed. Titration curves and IC50 values [M] were plotted using Graphpad (Prism). IC50 values were calculated by first transforming the data using equation X=Log(X). The transformed data was then fitted using nonlinear regression, using fitting algorithm, log (inhibitor) vs. response—variable slope (four parameters).

[3] = biological target: T1, human ICOS-mFc (Chimerigen); assay: HTRF, human ICOS-mFc, competitor human B7-H2-Alexa 647, n2
Procedure: as §4, §5

[4] = biological target: T3, human ICOS expressed on cells (human, UniProt Q9Y6W8 21-199); assay: Flow cytometry on CHO-S human ICOS cells, anti-human IgG AF647, N=3
T3 construct: also called CHO-S cells transfected with human ICOS; hICOS
T3 sequence: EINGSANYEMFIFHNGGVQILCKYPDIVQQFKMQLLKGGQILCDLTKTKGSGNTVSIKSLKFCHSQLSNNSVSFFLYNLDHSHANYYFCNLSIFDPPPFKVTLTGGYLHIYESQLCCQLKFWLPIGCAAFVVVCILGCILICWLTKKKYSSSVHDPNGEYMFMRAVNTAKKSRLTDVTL
Procedure: CHO—S cells transfected with either human ICOS or mouse ICOS were resuspended in FACS buffer (PBS+1% w/v BSA+0.1% w/v sodium azide) and transferred to a 96-well V-bottom plate (Greiner) at a density of 1×10⁵ cells per well. mAb and mAb² were titrated in FACS buffer, 1 in 3 dilution across 11 points from a starting working concentration of 400 nM. Plates were centrifuged at 300×g for 3 minutes, supernatant discarded and 50 μL mAb or mAb² solution were added to cells and incubated at 4° C. for 1 hour. Cells were washed with 150 μL of PBS and centrifuged at 300×g for 3 minutes, supernatant was discarded and cell pellet resuspended in 150 μL PBS added. This wash step was repeated twice. Bound mAb or mAb² was detected by addition of 50 μL of anti-human 647 (Jackson ImmunoResearch) diluted to 3 ug/ml in FACS buffer. Cells were incubated for 1 hour at 4° C. in the dark. Cells were washed with 150 μL of PBS and centrifuged at 300 g for 3 minutes, supernatant was discarded and cell pellet resuspended in 150 μL PBS added. This wash step was repeated twice. Cells were fixed with 25 μL 4% v/v paraformaldehyde, incubated for 20 minutes at 4° C., cells were pelleted by centrifugation at 300×g and the supernatant discarded. […] AlexaFluor 647 signal intensity (geometric mean) was measured by flow cytometry using a Beckman Coulter CytoFLEX instrument.

[5] = biological target: T2, mouse ICOS-mFc (Chimerigen); assay: DELFIA ELISA on coated mouse ICOS-mFc, N=2
Procedure: as §1, §2, §3

[6] = biological target: T2, mouse ICOS-mFc (Chimerigen); assay: HTRF, mouse ICOS-mFc, competitor mouse B7-H2-Alexa 647, n1
Procedure: as §4, §5

[7] = biological target: FcγRIIIa on effector cells (Jurkat NFAT luciferase v-variant effector cells, Promega) (human, UniProt P08637 17-254); assay: cell-based or functional assay
Sequence of FcγRIIIa on effector cells (Jurkat NFAT luciferase v-variant effector cells, Promega) (P08637 other isoform, or with tags, fused parts or gaps mutant limits assumed): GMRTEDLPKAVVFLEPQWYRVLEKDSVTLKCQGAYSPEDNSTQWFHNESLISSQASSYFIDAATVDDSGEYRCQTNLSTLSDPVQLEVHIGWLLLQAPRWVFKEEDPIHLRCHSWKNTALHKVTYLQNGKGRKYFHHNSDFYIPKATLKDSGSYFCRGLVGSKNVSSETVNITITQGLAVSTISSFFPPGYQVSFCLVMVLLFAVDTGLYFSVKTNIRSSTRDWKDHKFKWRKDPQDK

B1: STIM001 (antibody, human IgG1, kappa)
heavy: not shown
light: DIVMTQSPLSLPVTPGEPASISCRSSQSLLHSNEYNYLDWYLQKPGQSPQLLIFLGSNRASGVPDRFSGSGSGTDFTLKITRVEAEDVGIYYCMQSLQTPLTFGGGTKVEIKRTVAAPSVFIFPPSDEQLKSGTASVVCLLNNFYPREAKVQWKVDNALQSGNSQESVTEQDSKDSTYSLSSTLTLSKADYEKHKVYACEVTHQGLSSPVTKSFNRGEC
notes: Anti-ICOS monospecific antibody, tested as human IgG1; also called STIM001 monoclonal IgG1 antibody
Question: What does the source list for B1?
Answer: EC50 [1]: 20 nM; IC50 [2]: 8.91 nM; IC50 [3]: 1.12 nM; EC50 [4]: 19.7 nM; EC50 [5]: 18.7 nM; IC50 [6]: 7.98 nM; EC50 of luciferase fold of induction, CHO human ICOS target cells, N=1 [7]: 0.456 nM; EC50 of luciferase fold of induction, CHO human ICOS target cells, N=2 [7]: 0.247 nM; EC50 of luciferase fold of induction, CHO human ICOS target cells, N=3 [7]: 0.147 nM; EC50 of luciferase fold of induction, CHO human ICOS target cells, mean [7]: 0.283 nM; EC50 of luciferase fold of induction, CHO mouse ICOS target cells, N=1 [7]: 0.479 nM; EC50 of luciferase fold of induction, CHO mouse ICOS target cells, N=2 [7]: 0.534 nM; EC50 of luciferase fold of induction, CHO mouse ICOS target cells, N=3 [7]: 0.579 nM; EC50 of luciferase fold of induction, CHO mouse ICOS target cells, mean [7]: 0.53 nM

B2: STIM003 (antibody, human IgG1, kappa)
heavy: not shown
light: EIVLTQSPGTLSLSPGERATLSCRASQSVSRSYLAWYQQKRGQAPRLLIYGASSRATGIPDRFSGDGSGTDFTLSISRLEPEDFAVYYCHQYDMSPFTFGPGTKVDIKRTVAAPSVFIFPPSDEQLKSGTASVVCLLNNFYPREAKVQWKVDNALQSGNSQESVTEQDSKDSTYSLSSTLTLSKADYEKHKVYACEVTHQGLSSPVTKSFNRGEC
notes: Anti-ICOS monospecific antibody, tested as human IgG1; also called STIM003 monoclonal IgG1 antibody
Question: How did the EC50 [1] turn out when B2 was run?
Answer: The EC50 was 0.488 nM.

Question: And the IC50 [2]?
Answer: Its IC50 is 0.14 nM.

Question: And the IC50 [3]?
Answer: Its IC50 is 0.45 nM.

Question: And the EC50 [4]?
Answer: Its EC50 is 4.49 nM.

Question: What about the EC50 [5] of the same binder?
Answer: The EC50 was 0.386 nM.

Question: What about the IC50 [6] of the same binder?
Answer: The IC50 was 0.87 nM.

Question: What about the “EC50 of luciferase fold of induction, CHO human ICOS target cells, N=1” value [7] of the same binder?
Answer: Its value is 0.326 nM.

Question: What about the “EC50 of luciferase fold of induction, CHO human ICOS target cells, N=2” value [7] of the same binder?
Answer: Its value is 0.477 nM.

Question: What about the “EC50 of luciferase fold of induction, CHO human ICOS target cells, N=3” value [7] of the same binder?
Answer: Its value is 0.24 nM.

Question: What about the “EC50 of luciferase fold of induction, CHO human ICOS target cells, mean” value [7] of the same binder?
Answer: The value was 0.347 nM.

Question: What about the “EC50 of luciferase fold of induction, CHO mouse ICOS target cells, N=1” value [7] of the same binder?
Answer: The value was 0.508 nM.

Question: What about the “EC50 of luciferase fold of induction, CHO mouse ICOS target cells, N=2” value [7] of the same binder?
Answer: The value was 0.754 nM.

Question: And the “EC50 of luciferase fold of induction, CHO mouse ICOS target cells, N=3” value [7]?
Answer: Its value is 0.703 nM.

Question: What about the “EC50 of luciferase fold of induction, CHO mouse ICOS target cells, mean” value [7] of the same binder?
Answer: Its value is 0.655 nM.
